Assay results reported in US11859229B2, “Polyvinyl alcohol-degrading enzyme and process for producing the same” (Hayashibara Co., Ltd., priority 2017, dated 2024).

How the values were obtained:
Type in all cases: biochemical
[1] = Detection of β-diketone hydrolyzing activity (acetone from 2,4-pentanedione by gas chromatography); set-up: key: Yes: Acetone, a product by the hydrolysis, was qualitatively detected; conditions: qualitative
Text: As shown in the above (2), the PVA-degrading enzyme of the present invention has an activity of hydrolyzing […]-diketone, i.e., […]-diketone-hydrolyzing activity. Enzymes having β-diketone-hydrolyzing activity can hydrolyze an oxidized PVA having a […]-diketone structure (i.e., oxidized PVA). Beta-diketone-hydrolyzing activity can be detected by examining the activity of hydrolyzing 2, 4-pentanedione which is a model compound of oxidized PVA having a […]-diketone structure. Acetone and acetic acid are formed when a PVA-degrading enzyme hydrolyzes 2,4-pentanedione. Therefore, for example, […]-diketone-hydrolyzing activity can be detected by the following method using 2,4-pentanedione as a substrate.
2,4-Pentanedione (Reagent grade, commercialized by Wako Pure Chemical Industries Co., Ltd., Osaka, Japan) was added to 50 mM sodium phosphate buffer (pH 7.0) to give a concentration of 0.2% (w/v) to make into a substrate solution. To 1 mL of the substrate solution, 0.2 mL of enzyme solution and 0.8 mL of 50 mM sodium phosphate buffer (pH 7.0) were added and then the mixture was shaken at 27° C. for 3 hours for the reaction. After the reaction, 2 mL of the reaction mixture was withdrawn and put in a glass vial, and then the vial was sealed and heated at 95° C. for 40 min. […]

[2] = Assay for PVA-oxidizing activity (hydrogen peroxide formation, titanium reagent, A410)
Method: As shown in the above (1), the PVA-degrading enzyme of the present invention has an PVA-oxidizing activity, i.e., an activity of catalyzing the reaction of oxidizing PVA as substrate and forming hydrogen peroxide. For example, the PVA-oxidizing activity can be measured by the following method.
To 0.5 mL of a substrate solution prepared by dissolving PVA (Reagent grade polyvinyl alcohol, polymerization degree: 2,000, Nacalai Tesque Inc., Kyoto, Japan) into 100 mM sodium phosphate buffer (pH 7.0) to give a concentration of 2% (w/v), 15 µL of 2% (w/v) of sodium azide solution was added, and then 0.5 mL of an enzyme solution is further added and reacted with shaking at 27° C. for 60 min. After the 60 min-reaction, the reaction was stopped by mixing 0.32 mL of the reaction mixture to 0.8 mL of a titanium reagent, and the yellow color, produced by reacting hydrogen peroxide formed by the enzyme reaction and the titanium reagent, was measured by measuring the absorbance at 410 nm (A410) as an index. Separately, the enzyme solution was added to the substrate solution, and the resulting mixture is immediately mixed with the titanium reagent. The resulting mixture was similarly measured its color and the value was used as the value at the reaction zero minutes. Then, the amount of the formed hydrogen peroxide is determined and the PVA-oxidizing activity is calculated based on the following formula. It is known that the absorbance at 410 nm (A410) increases by “1” when 3.65 […]mole/mL of hydrogen peroxide is formed. Therefore, in the following Formula 1, the coefficient of “3.65” has been multiplied. One unit of the PVA-oxidizing activity is defined as the amount of enzyme that forms 1 […]mole of hydrogen peroxide per min under the above conditions. Titanium reagent is prepared by diluting 5% titanium sulfate (IV) solution, commercialized by Nacalai Tesque Inc., Kyoto, Japan, 25-fold with 10% (w/w) sulfuric acid.

[3] = Thermal stability and pH stability (residual PVA-oxidizing activity); conditions: 10 mM phosphate buffer, pH 7.0, 60 min
Method: To 0.5 mL of a substrate solution prepared by dissolving PVA (Reagent grade polyvinyl alcohol, polymerization degree: 2,000, Nacalai Tesque Inc., Kyoto, Japan) into 100 mM sodium phosphate buffer (pH 7.0) to give a concentration of 2% (w/v), 15 µL of 2% (w/v) of sodium azide solution was added, and then 0.5 mL of an enzyme solution is further added and reacted with shaking at 27° C. for 60 min. After the 60 min-reaction, the reaction was stopped by mixing 0.32 mL of the reaction mixture to 0.8 mL of a titanium reagent, and the yellow color, produced by reacting hydrogen peroxide formed by the enzyme reaction and the titanium reagent, was measured by measuring the absorbance at 410 nm (A410) as an index. Separately, the enzyme solution was added to the substrate solution, and the resulting mixture is immediately mixed with the titanium reagent. The resulting mixture was similarly measured its color and the value was used as the value at the reaction zero minutes. Then, the amount of the formed hydrogen peroxide is determined and the PVA-oxidizing activity is calculated based on the following formula. It is known that the absorbance at 410 nm (A410) increases by “1” when 3.65 […]mole/mL of hydrogen peroxide is formed. […]
In the two purified preparations of the PVA-degrading enzyme, PVA-A was used for investigating thermal stability and pH stability using PVA-oxidizing activity as an index according to the assay method. Thermal stability was determined by the steps of incubating the enzyme solution (in 10 mM phosphate buffer, pH 7.0) at various temperature for 60 min, cooling in water, and then measuring the residual enzyme activity. pH Stability was determined by the steps of incubating the enzyme solution in 100 mM buffer with different pH at 4° C. for 24 hours, adjusting pH to 7.0, and then measuring the residual enzyme activity. […] In FIG. 6, symbols, “●”, “▪”, “▴” and “♦”, mean values measured by using acetate buffer, phosphate buffer, glycine-NaOH buffer, and potassium chloride-NaOH buffer, respectively, for pH control.

B1: PVA-A: purified PVA-degrading hybrid enzyme from Pseudomonas sp. VT1B strain, amino acid sequence of SEQ ID NO: 2 (protein, listed as Pseudomonas sp.)
chain: AENWPMFGKNYENTRATSDTQISTANISTLNVVRRTTDGGITGTPTVVDGVAYYSDFSGYVKAVRVSDGVVLWRVRPQTTMLSPSPFVTADTVYVAGNNSYVYALNRANGAVRWTTQIETSPNSRISSSPIVVGNILIIGTGSYQVFLPATPMFRGRVAFLNATTGAILPYSTNMCPSASCGGGISVWSTAAIDESTRTGYIGTGQAYRDPAGPYSDALVAFNIDTGAIRWARQFLANDVYQLGGTLRYDYDVGAAPNLFVANGQRMVGVGGKDGTYRAFNRDTGAPIWNTPVGRGSAIGGVMQSTAYGDGRIYVTSNTSTIGSGRNDPVPATAEASALDAATGAPVWIRQLDAGGFGGVAYANGLMYASTWDGRLRVFNAANGNIVREVQVSPSRGAYVPAPTDGFPNGSAGGPVVYGNRVLMGYGWTWVLNINGGLTTMEATVGGGASQTVTLASSSDTYVQSGTPTTNYAYDVNLLARLADAEGLTRASFLQFPLTAVPAGTITSARLRLYGRHDAPTGTGQSVSVWPGTKTTTWSGPNVTYNNSSTETGVDFYATSSIATATVGITPQYYEWNVTDYVASRRSLGHATFGVAVNSAHQYRVTLNSADNTANRPELVVTVSGGTGSQLPGSCPSGFTARAGVNQGFMHNGVARGFVLNVPANVSTPRPVFVSLTGSVESTNENLGARGGAGALNNDGFLVIGPVRRCAGQDPNGAGTSVNGGTCNQAGTGGWNWNPWNEGRVFAAAGDPWKTAEGPDSQFLEAVVRCVAASYPVDSTRMYLGGISSGATMTHRALLFNSDFWAGGLPLSGEWYVSQDNGTAYPGADEFAARRQAVINNPTKIFQGRVGPLPLPATQSPMIVISMWGGANDIWYCGSTLCADYRPSTQAASNYFSALPNVVHVACSSSHGHQWPTQNRAAFNTWAATTLASHPKGTPASSFVLPPPPAGYSCRVGRYTDHYSGT
2,4-Pentanedione-Degrading Activity [1]: Yes*
Specific activity ([2]; PVA-oxidizing activity per mg protein at each purification step): 3.2 U/mg
Total Activity (PVA-oxidizing activity) ([2]; at each purification step, from 4 L culture supernatant): 5.4 U
Thermal stability of PVA-oxidizing activity [3]: up to 45 °C
